Positions count from the first letter of the chain named. No end group written: not given here.
Columns and labels:
Assay in all cases: AlphaScreen or HTRF
[1] = target: T1, H6-tagged OsTPR1 N-terminal domain (TPD), TPR1(1–209) (rice, UniProt Q10NY2 1-209)
T1 sequence (looked up): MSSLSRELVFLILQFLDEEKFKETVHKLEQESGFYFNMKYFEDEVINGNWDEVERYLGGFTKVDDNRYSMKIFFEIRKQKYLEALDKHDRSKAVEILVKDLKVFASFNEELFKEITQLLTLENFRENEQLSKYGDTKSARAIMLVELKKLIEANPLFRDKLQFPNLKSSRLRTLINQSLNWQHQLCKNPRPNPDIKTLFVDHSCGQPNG

[2] = target: T2, H6-tagged OsTPR2 N-terminal domain (TPD), TPR2(1–210) (rice, UniProt Q5NBT9 1-210)
T2 sequence (looked up): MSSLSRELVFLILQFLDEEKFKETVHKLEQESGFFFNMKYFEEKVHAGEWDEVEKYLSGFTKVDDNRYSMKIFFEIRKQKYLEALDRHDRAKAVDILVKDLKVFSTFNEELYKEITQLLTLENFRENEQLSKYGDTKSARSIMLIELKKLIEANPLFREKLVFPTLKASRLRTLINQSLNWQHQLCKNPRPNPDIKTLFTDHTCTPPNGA

[3] = target: T3, H6-tagged Arabidopsis TPR4 N-terminal domain, TPR4(1–209) (Arabidopsis, UniProt Q27GK7 1-209)
T3 sequence (looked up): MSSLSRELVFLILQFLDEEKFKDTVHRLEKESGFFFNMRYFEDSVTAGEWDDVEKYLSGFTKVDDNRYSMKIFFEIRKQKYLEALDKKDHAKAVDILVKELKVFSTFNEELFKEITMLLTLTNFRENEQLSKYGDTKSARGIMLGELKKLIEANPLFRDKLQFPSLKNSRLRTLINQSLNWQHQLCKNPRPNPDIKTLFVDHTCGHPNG

[4] = target: T4, H6-tagged OsTPL N-terminal domain (TPD), TPL(1–209) (rice, UniProt Q0J7U6 1-209)
T4 sequence (looked up): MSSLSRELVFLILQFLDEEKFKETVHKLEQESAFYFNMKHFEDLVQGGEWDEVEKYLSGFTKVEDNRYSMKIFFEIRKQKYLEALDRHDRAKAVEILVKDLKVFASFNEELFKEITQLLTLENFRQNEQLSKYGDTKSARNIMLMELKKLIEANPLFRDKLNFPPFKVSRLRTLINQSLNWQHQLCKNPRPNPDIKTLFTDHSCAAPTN

[5] = target: T5, H6-tagged Arabidopsis TPR1 N-terminal domain, TPR1(1–209) (Arabidopsis, UniProt Q0WV90 1-209)
T5 sequence (looked up): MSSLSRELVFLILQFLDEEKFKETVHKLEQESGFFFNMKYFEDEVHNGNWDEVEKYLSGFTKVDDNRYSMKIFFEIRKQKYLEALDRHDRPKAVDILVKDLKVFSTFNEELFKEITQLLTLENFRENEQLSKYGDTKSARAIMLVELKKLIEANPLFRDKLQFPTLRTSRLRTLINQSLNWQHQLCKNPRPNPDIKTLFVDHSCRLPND

[6] = target: T6, H6-tagged Arabidopsis TPR3 N-terminal domain, TPR3(1–209) (Arabidopsis, UniProt Q84JM4 1-209)
T6 sequence (looked up): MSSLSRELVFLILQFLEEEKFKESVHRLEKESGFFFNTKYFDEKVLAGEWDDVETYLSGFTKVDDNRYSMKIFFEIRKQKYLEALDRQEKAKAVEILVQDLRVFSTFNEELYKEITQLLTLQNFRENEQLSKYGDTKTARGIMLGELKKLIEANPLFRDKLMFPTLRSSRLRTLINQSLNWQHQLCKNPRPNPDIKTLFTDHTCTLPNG

[7] = target: T7, H6-tagged Arabidopsis TPR2 N-terminal domain, TPR2(1–209) (Arabidopsis, UniProt Q9LRZ0 1-209)
T7 sequence (looked up): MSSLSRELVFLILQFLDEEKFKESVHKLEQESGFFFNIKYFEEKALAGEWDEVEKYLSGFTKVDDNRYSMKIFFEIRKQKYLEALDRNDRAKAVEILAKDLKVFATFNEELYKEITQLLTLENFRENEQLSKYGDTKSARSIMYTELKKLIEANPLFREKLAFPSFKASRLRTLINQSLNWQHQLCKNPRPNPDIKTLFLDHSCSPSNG

[8] = target: T8, H6-tagged Arabidopsis TPL N-terminal domain, TPL(1–209) (Arabidopsis, UniProt Q94AI7 1-209)
T8 sequence (looked up): T5 sequence (looked up) with R87K, T168N, R205G, L206P, D209G

Measured: binding result

B1: biotinylated NINJA EAR motif peptide (12 amino acids, wild type) (peptide)
peptide: DNGLELSLGLSC
modifications: also: biotinylated, end not given here
binds: all assays above
